{"source": "patent US10428127B2", "about": "“Cyclic, amyloid beta-binding peptides and the use thereof” (FORSCHUNGSZENTRUM JUELICH GMBH, priority 2013, dated 2019)", "key": {"[1]": {"target": "T1, amyloid beta oligomers (Homo sapiens, UniProt P05067)", "T1 construct": "1 mg lyophilized Aß1-42 and N-terminal biotinylated Aß1-42; biotin (only on part of the peptide molecules)", "T1 sequence (P05067 672-713)": "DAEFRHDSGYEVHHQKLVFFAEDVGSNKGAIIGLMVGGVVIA", "test": "SPR binding kinetics, single-cycle, heterogeneous binding model (FIG. 3)", "description": "(§1) 1 mg lyophilized Aß1-42 and N-terminal biotinylated Aß1-42 were each dissolved in 1 ml 100% hexafluoroisopropanol (HFIP) and dissolved overnight at room temperature. For the oligomer and fibril preparation, non-biotinylated Aß was used with N-terminal biotinylated Aß at a ratio of 1:10 and the HFIP was evaporated (Concentrator 5301 from Eppendorf). The resultant Aß film, at a final concentration of 80 μM, was placed in sodium phosphate buffer (10 mM, pH 7.4) and incubated (RT, 600 rpm). The incubation time was 3 h for the oligomer preparation, and 24 h for the fibril preparation. 100% N-terminal biotinylated Aß1-42 without incubation was used for the preparation of monomers.\n(§2) The density gradient centrifugation was carried out subsequent to the Aß preparation to purify the respective Aß species according to the size of the same. An iodixanol gradient in 10 mM sodium phosphate buffer, pH 7.4 with rising concentrations from 50% to 5% v/v iodixanol was used for this purpose. 100 μl of the Aß sample was applied and separated by way of ultracentrifugation (3 h, 4° C., 259000 g). Subsequently, the gradient was fractionated into 14 fractions, 140 μl each. Monomeric Aß are present in the first two top fractions, Aß oligomers in fractions 4 to 6, and Aß fibrils in fractions 11 to 13.\nA T200 from Biacore (GE Healthcare) was used for SPR spectroscopy. The Aß species purified by way of density gradient centrifugation were directly immobilized on a sensor chip (Series S Sensor Chips SA) according to the manufacturer's instructions by way of biotin-streptavidin coupling. 1×PBS was used as the running buffer. Loading took place at 25° C. and a flow rate of 5 μl/min. Subsequently, the flow cells were freed from non-specifically bound ligand overnight at a steady flow of 30 μl/min.\nBinding kinetics were likewise measured by way of SPR spectroscopy using a T200 device from Biacore (GE Healthcare). The standard conditions are 25° C. and a flow rate of 30 μl/min. Different lyophilizates of the D peptides were placed in the 1×PBS running buffer and serially diluted. The method used was a “single-cycle” kinetics method, wherein five increasing analyte concentrations were pumped over the immobilized flow cells. The contact times selected, depending on the analyte, were 90 to 120 s for association and dissociation and 1800 to 5400 s for the final dissociation. The sensorgrams were double referenced with the aid of an unloaded flow cell and the running buffer that was used. The binding curves were evaluated by way of kinetic fit models (heterogeneous binding model) using the Biacore T200 evaluation software (version 2.0).\nFIGS. 2 to 4 show the results on the binding behavior of the cyclized peptides according to the invention (affinity study). The figures show data for the kinetic evaluation of the binding strength of the various candidates to amyloid beta monomers (FIG. 2), amyloid beta oligomers (FIG. 3), and amyloid beta fibrils (FIG. 4). The two binding constants that result when fitting a heterogeneous binding model are shown in each case, plotted as white bars and black bars. It is important to remember that a logarithmic scale is shown here, which means that minor differences in the bar size represent major differences in the dissociation constant KD. White bars are the respective low-affinity sites and the binding strengths thereof, and black bars show the high-affinity binding sites and the binding strengths thereof. […]"}, "[2]": {"target": "T2, A beta oligomers (Homo sapiens, UniProt P05067)", "T2 construct": "approximately 20 nM or 1.8 ng Aß 1-42", "T2 sequence (P05067 672-713)": "as above", "test": "Density gradient centrifugation fractions treated with peptide, A beta size distribution (FIG. 1)", "assay_type": "biochemical", "conditions": "fractions 4 to 8 (or 4 to 10) of density gradient; peptide 20 μM; versus control and linear D3", "description": "(§3) Thereafter, the resultant fractions are treated with and without an active ingredient and determined by way of RP-HPLC, for example. In this way, it is possible to determine the effectiveness of the active ingredient.\n(§4) A further method is described hereafter. The so-called QIAD (quantitative determination of interference with Aß aggregate size distribution) test can be used for the quantitative analysis of active ingredients. The method for quantitatively analyzing the influence of an active ingredient on the particle size distribution of amyloid peptides and/or proteins in a sample comprises the following steps. […] This change is established quantitatively. […] Finally, the concentration of A beta in the respective fraction is determined by completely denaturing the A beta species during a reverse phase (RP-)HPLC carried out subsequent to the fractionating. […] Eluting A beta is detected by way of UV absorption at 215 nm. […] Depending on the fraction, the mean value from multiple, for example six, experiments conducted independently of one another can be calculated with the resulting standard deviation. The advantage of HPLC analysis is that detection is very sensitive (such as approximately 20 nM or 1.8 ng Aß 1-42) and quantification is reliable independently of the state of aggregation and the solvent. […]"}, "[3]": {"target": "T3, A beta monomer (Homo sapiens, UniProt P05067)", "T3 construct": "approximately 20 nM or 1.8 ng Aß 1-42", "T3 sequence (P05067 672-713)": "as above", "test": "Density gradient centrifugation fractions treated with peptide, A beta size distribution (FIG. 1)", "assay_type": "biochemical", "conditions": "fractions 1 to 2 of density gradient", "description": "as §3, §4"}, "[4]": {"target": "T4, amyloid beta fibrils (Homo sapiens, UniProt P05067)", "T4 construct": "1 mg lyophilized Aß1-42 and N-terminal biotinylated Aß1-42; biotin (only on part of the peptide molecules)", "T4 sequence (P05067 672-713)": "as above", "test": "SPR binding kinetics, single-cycle, heterogeneous binding model (FIG. 4)", "conditions": "25° C., high-affinity site", "description": "as §1\nas §2, with “Subsequently, the gradient was fractionated into 14 fractions, 140 μl each. Monomeric Aß are present in the first two top fractions, Aß oligomers in fractions 4 to 6, and Aß fibrils in fractions 11 to 13.” left out\n(§5) Binding kinetics were likewise measured by way of SPR spectroscopy using a T200 device from Biacore (GE Healthcare). […] The binding curves were evaluated by way of kinetic fit models (heterogeneous binding model) using the Biacore T200 evaluation software (version 2.0). […]"}, "[5]": {"test_system": "APPsDI mice", "test": "Morris water maze (MWW) test, spatial memory (FIG. 5)", "assay_type": "in vivo", "conditions": "five consecutive days, compared to saline", "description": "The test measures the spatial memory of animals, which here were genetically engineered APPsDI mice.\nThe time is measured in seconds that an animal requires to locate a platform hidden closely beneath the water surface in a water tank. This is measured in several experiments per day on several consecutive days. […] The search time is plotted in seconds on five consecutive days for mice that were treated with the peptide according to the invention cD3R (SEQ ID NO. 5), compared to placebo experiments (saline)."}, "[6]": {"target": "T5, amyloid beta monomers (Homo sapiens, UniProt P05067)", "T5 construct": "100% N-terminal biotinylated Aß1-42 without incubation", "T5 sequence (P05067 672-713)": "as above", "test": "SPR binding kinetics, single-cycle, heterogeneous binding model (FIG. 2)", "conditions": "25° C., high-affinity site", "description": "as §1\nas §2, with “Subsequently, the gradient was fractionated into 14 fractions, 140 μl each. Monomeric Aß are present in the first two top fractions, Aß oligomers in fractions 4 to 6, and Aß fibrils in fractions 11 to 13.” left out\nas §5"}, "[7]": {"test_system": "transgenic AD mice", "conditions": "oral administration with drinking water; cited from earlier work"}}, "note": "Entries after “also recorded” stand apart in the source; their conditions may differ. Non-standard residues stand in square brackets, D forms with d. No end group written: not given here.", "data": [{"substance": "rprtrlhthrnr (cyclo([dR][dP][dR][dT][dR][dL][dH][dT][dH][dR][dN][dR]); SMILES CC(C)C[C@H]1NC(=O)[C@@H](CCCNC(=N)N)NC(=O)[C@@H]([C@H](C)O)NC(=O)[C@@H](CCCNC(=N)N)NC(=O)[C@H]2CCCN2C(=O)[C@@H](CCCNC(=N)N)NC(=O)[C@@H](CCCNC(=N)N)NC(=O)[C@@H](CC(N)=O)NC(=O)[C@@H](CCCNC(=N)N)NC(=O)[C@@H](Cc2c[nH]cn2)NC(=O)[C@@H]([C@H](C)O)NC(=O)[C@@H](Cc2c[nH]cn2)NC1=O) [cD3, cyclized D3, N-terminal amino group and C-terminal carboxyl group coupled by an amide bond]", "values": [{"measurement": "number of low-affinity sites relative to high-affinity sites", "setting": "[1]; from Rmax 79/21%", "result": "approximately 4 times"}, {"measurement": "Rmax, contribution of high-affinity site (KD2) to RU total loading", "setting": "[1]; high-affinity site (KD2)", "result": 21, "unit": "%"}, {"measurement": "Rmax, contribution of low-affinity site to RU total loading", "setting": "[1]; low-affinity site (white bar)", "result": 79, "unit": "%"}, {"measurement": "elimination / decrease of A beta oligomer concentration", "setting": "[2]", "result": "eliminates the oligomers in fractions 4 to 8 even more efficiently than linear D3; also recorded: clear decrease in the A beta oligomer concentration"}, {"measurement": "influence on the A beta monomer concentration", "setting": "[3]", "result": "no influence"}]}, {"substance": "rprtrlhthrnrr (cyclo([dR][dP][dR][dT][dR][dL][dH][dT][dH][dR][dN][dR][dR])) [cD3r]", "values": [{"measurement": "KD (kinetics), binding strength to amyloid beta fibrils", "setting": "[4]", "result": "does very well"}, {"measurement": "KD (kinetics), binding strength to amyloid beta oligomers", "setting": "[1]; SPR, 25° C., high-affinity site, compared with other cyclized peptides", "result": "binds even more strongly by two orders of magnitude than the other cyclized peptides"}, {"measurement": "learning (search time to locate hidden platform)", "setting": "[5]", "result": "significant"}, {"measurement": "KD (kinetics), binding affinity to amyloid beta monomers", "setting": "[6]", "result": "particularly high affinity"}]}, {"substance": "rprtrlhthrnr ([dR][dP][dR][dT][dR][dL][dH][dT][dH][dR][dN][dR]) [D3, D-enantiomeric linear peptide known from WO 02/081505 A2]", "values": [{"measurement": "cognitive abilities of treated mice", "setting": "[7]", "result": "significantly improved cognitive abilities"}, {"measurement": "plaque in treated mice", "setting": "[7]", "result": "considerably less plaque"}, {"measurement": "binding sites bound on amyloid beta oligomer", "setting": "[1]; fit of SPR binding data", "result": "binds only a low-affinity site, but not a high-affinity site"}]}, {"substance": "rkrtrlhthrnr (cyclo([dR][dK][dR][dT][dR][dL][dH][dT][dH][dR][dN][dR])) [cD3P2K]", "values": [{"measurement": "KD (kinetics), binding strength to amyloid beta fibrils", "setting": "[4]", "result": "sub-pM binding range"}]}]}
